Test results from the supplement of paper PMC12764529.
± gives the half width of the 95% confidence interval.

Columns and labels:
[1] = folding stability dG unfold from chymotrypsin proteolysis; higher = more stable
Method in brief: (§1)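 Only designs with AlphaFold2 dimer inter-PAE above 15 were retained; each was a mini-protein under 80 residues with no cysteine, in a PA-tagged cDNA display construct. After digestion with trypsin and chymotrypsin and sequencing, K50 was inferred by Bayesian fitting of counts, and unfolding free energy was derived per protease or combined against a sequence-predicted unfolded-state K50 and a shared folded-state K50.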

[2] = folding stability dG unfold (combined trypsin and chymotrypsin); higher = more stable
Method in brief: as §1

[3] = folding stability dG unfold from trypsin proteolysis; higher = more stable
Method in brief: as §1

| Sequence | folding stability dG unfold [1] | folding stability dG unfold [2] | folding stability dG unfold [3] |
| --- | --- | --- | --- |
| SAGGSAGGSMIGTADGTPVPFEVTHAEVYEVTLPNGEKYYLIKAYDPSTGKYFVALIPAKDIASAGGSAGGS [r12_823_TrMRF] | 2.84 ± 0.052 kcal/mol | 2.8 ± 0.1 kcal/mol | 2.77 ± 0.11 kcal/mol |
| SAGGSAGGSMIVETEVEEGDGSAVTKTFYPDSVTTTVNTPDEVTVEKTFPDGTVETTTVPLSPSAGGSAGGS [r12_507_JUSTAS] | 0.967 ± 0.031 kcal/mol | 0.896 ± 0.086 kcal/mol | 0.607 ± 0.028 kcal/mol |
| SAGGSAGGSMKIKIEVDKETGYIVIEAEPGETIEIEIGGKKIKMEVIENEDGSLYFVFKIEKPSAGGSAGGS [r12_970_TrROS_Hall] | 4.06 ± 0.085 kcal/mol | 3.6 ± 0.24 kcal/mol | 2.23 ± 0.12 kcal/mol |
| SAGGSAGGSMKIKPGQVVKIKVEKDGKIYEFEAKIDPKTGKLVEIKSAEELKGLKIKEIEIVPSAGGSAGGS [r12_6_TrROS_Hall] | 2.274 ± 0.016 kcal/mol | 1.99 ± 0.062 kcal/mol | 1.14 ± 0.027 kcal/mol |
| SAGGSAGGSMKIRIERTPDKLTIMIPPDNPDKIKNIIDNFGYPITDVKVTQNPPGMHMIEIPLSAGGSAGGS [r12_493_TrROS] | 1.47 ± 0.082 kcal/mol | 1.51 ± 0.19 kcal/mol | 1.58 ± 0.095 kcal/mol |
| SAGGSAGGSMKIVIVVDEDGSVRVRIEETGEEITFPKGMTAEEIAELLKKKFPNLEVEIVEVPSAGGSAGGS [r12_423_TrROS_Hall] | 3.09 ± 0.12 kcal/mol | 3.76 ± 0.24 kcal/mol | 4.28 ± 0.19 kcal/mol |
| SAGGSAGGSMKKITLTLTFPNGTTETLDITPLLEKSGLSPEEAIQLLKEELPENVTYKVTTEGSAGGSAGGS [r12_399_JUSTAS] | 3.152 ± 0.03 kcal/mol | 3.01 ± 0.084 kcal/mol | 2.69 ± 0.083 kcal/mol |
| SAGGSAGGSMKPGEKVKVEIVSYDEKTKELTIKITYGPKKTKTITIKPKTKEEALEQLKKLLKSAGGSAGGS [r20_167_TrROS_Hall] | 3.14 ± 0.051 kcal/mol | 2.6 ± 0.27 kcal/mol | 1.93 ± 0.17 kcal/mol |
| SAGGSAGGSMKPVVDSKADPTSGPEKTLTLTLGDETVTHTVSSSESLTIPLPPNSTVSFEPLGSAGGSAGGS [r12_373_JUSTAS] | 1.11 ± 0.02 kcal/mol | 1.03 ± 0.042 kcal/mol | 0.791 ± 0.021 kcal/mol |
| SAGGSAGGSMKTEVTVDEEGKYTVTVTPPDGSTVNLVVPPGDPAAAVAAAKAAGLEVEDIKAASAGGSAGGS [r12_891_JUSTAS] | -0.241 ± 0.15 kcal/mol | -0.21 ± 0.27 kcal/mol | 0.0357 ± 0.061 kcal/mol |
| SAGGSAGGSMKTIELPNGMKITVEKDEETGVYTITITFPDGSKKTITVPKGTSLEDLVIEIKPSAGGSAGGS [r12_261_TrROS_Hall] | 4.38 ± 0.21 kcal/mol | 4.04 ± 0.13 kcal/mol | 2.54 ± 0.095 kcal/mol |
| SAGGSAGGSMKTTLLAEKELPDGTRVELTRVESPGSLTYEVVTVSPEGTEVRTLPPDELPYLLSAGGSAGGS [r12_315_JUSTAS] | 0.399 ± 0.23 kcal/mol | 0.912 ± 0.15 kcal/mol | 1.22 ± 0.082 kcal/mol |
| SAGGSAGGSMKTVEITIPFYSTTTDPVPSLGLLKTYLEEPEIKLKISPEEYKKLKKTPILKELSAGGSAGGS [r12_1015_JUSTAS] | 0.412 ± 0.26 kcal/mol | 0.234 ± 0.27 kcal/mol | -0.229 ± 0.33 kcal/mol |
| SAGGSAGGSMKVYRIKIEVDGKTYEIEVEMSEEEVKKLAEELGIKDVKIKKVEIEPVEEVEEKSAGGSAGGS [r12_292_TrROS_Hall] | 2.07 ± 0.1 kcal/mol | 1.92 ± 0.21 kcal/mol | 0.859 ± 0.18 kcal/mol |
| SAGGSAGGSMKWTSIASYPHPDMVVHVIKFEGGGELTFPAPFEDLVEIAEKFDLDLEFTGDHPSAGGSAGGS [r12_676_TrMRF] | 0.28 ± 0.11 kcal/mol | 0.447 ± 0.11 kcal/mol | 0.45 ± 0.072 kcal/mol |
| SAGGSAGGSMNTTTTPTAVPAGATLTVTVTSSSKSYSVPPAGPVTVTTTSGSSGTTVTVDVVASAGGSAGGS [r12_919_JUSTAS] | 0.618 ± 0.051 kcal/mol | 0.53 ± 0.043 kcal/mol | 0.314 ± 0.022 kcal/mol |
| SAGGSAGGSMPAGVLVTVTITITKPGKPETLDELDVTVAEGDLDALEEEFAEKYPGLEVTVVRSAGGSAGGS [r12_21_JUSTAS] | 1.92 ± 0.089 kcal/mol | 1.6 ± 0.1 kcal/mol | 0.818 ± 0.08 kcal/mol |
| SAGGSAGGSMPDLRPAPVPALVIPLDLPLEEAIEKARELLDLPEDTEIPIAEFDPETGKIVIASAGGSAGGS [r12_815_TrMRF] | 1.94 ± 0.051 kcal/mol | 1.57 ± 0.039 kcal/mol | 0.533 ± 0.024 kcal/mol |

| Sequence | folding stability dG unfold [1] | folding stability dG unfold [2] | folding stability dG unfold [3] |
| --- | --- | --- | --- |
| SAGGSAGGSMPGETVTLNVKTTVEVTTTLSSPSGSPFPVSVTREVTIPITVSSEELKKGLITLESAGGSAGG [r6_138_JUSTAS] | 0.291 ± 0.15 kcal/mol | 0.229 ± 0.13 kcal/mol | -0.473 ± 0.2 kcal/mol |
| SAGGSAGGSMPPNFRVMIHDDDGEERTFHMSPEDLKEFADNLPDVKVEPHPPGMMHITVRVPKSAGGSAGGS [r20_231_TrROS] | 0.454 ± 0.085 kcal/mol | 0.101 ± 0.092 kcal/mol | -0.72 ± 0.19 kcal/mol |
| SAGGSAGGSMPVVEVEITVSYTVPETGEILTKPETITMTPEEAEKIKEELEKKGYKVEVKYNPKSAGGSAGG [r6_97_JUSTAS] | 1.21 ± 0.067 kcal/mol | 1.15 ± 0.1 kcal/mol | 0.824 ± 0.043 kcal/mol |
| SAGGSAGGSMPVVRIKVRYFNKDGKPVKEKEITITLPAEEITADELRKRLEEAGYEIVEIEVVSAGGSAGGS [r12_611_TrROS_Hall] | 3.63 ± 0.054 kcal/mol | 3.58 ± 0.061 kcal/mol | 3.42 ± 0.08 kcal/mol |
| SAGGSAGGSMRIEFPELGVEVELEPLPGPHVLLRAVFPDGRVYLFRLDPDGRLVEVEPVEVLASAGGSAGGS [r12_56_TrMRF] | 3.42 ± 0.035 kcal/mol | 3.23 ± 0.11 kcal/mol | 2.99 ± 0.089 kcal/mol |
| SAGGSAGGSMSLKGVKITEVTNPGGKVTITYTGDGVPQTITIPPAERALIEKLRESGDISFSPSAGGSAGGS [r12_604_JUSTAS] | 0.579 ± 0.17 kcal/mol | 0.743 ± 0.1 kcal/mol | 0.708 ± 0.043 kcal/mol |
| SAGGSAGGSMSPSSSYTIEKVSEDPSRGVITLKITYPTGESITLKLSPADEEKAEEEAKKLLESAGGSAGGS [r20_167_JUSTAS] | 1.63 ± 0.1 kcal/mol | 1.63 ± 0.17 kcal/mol | 1.68 ± 0.04 kcal/mol |
| SAGGSAGGSMSVTLVKVERDPANNTITVTIKLPSGETAFTKTVAPGTTVTITFPDGTVLTVTESAGGSAGGS [r12_441_JUSTAS] | 3.1 ± 0.035 kcal/mol | 3.07 ± 0.061 kcal/mol | 3.12 ± 0.078 kcal/mol |
| SAGGSAGGSMSVTVVGRVPGLGLVEVVIHRPDEPVVVTVPRSEVEALLAAFPYPDAVVTTRDASAGGSAGGS [r12_23_JUSTAS] | 0.205 ± 0.028 kcal/mol | 0.151 ± 0.056 kcal/mol | -0.043 ± 0.047 kcal/mol |
| SAGGSAGGSMTAEELAKAFPNLPKEEITEIRVEKNEDGTITVTITVKNKNGEKIEIKVEIKLESAGGSAGGS [r12_1050_TrROS_Hall] | 2.16 ± 0.067 kcal/mol | 2.03 ± 0.1 kcal/mol | 1.34 ± 0.097 kcal/mol |
| SAGGSAGGSMTIKITLPEEGEKVKITIFVNGEEKEIEIEPGEEITIELPENVKNAIIIIEKEPSAGGSAGGS [r12_729_TrROS_Hall] | 2.48 ± 0.058 kcal/mol | 2.54 ± 0.11 kcal/mol | 2.49 ± 0.1 kcal/mol |
| SAGGSAGGSMTIPILFPIPPGQPPGMEITFRFPGYKIEIEILEVDPENGWIAFMIELTDPGDDSAGGSAGGS [r12_1039_TrROS] | 4.36 ± 0.095 kcal/mol | 3.92 ± 0.11 kcal/mol | 3.13 ± 0.093 kcal/mol |
| SAGGSAGGSMTSVTTLVETETLTNGNTIVPQLVQITVTLEVPAVPPEEIKPKPAPGDRWTYYSSAGGSAGGS [r12_1031_JUSTAS] | 1.1 ± 0.16 kcal/mol | 1.12 ± 0.18 kcal/mol | 1.01 ± 0.073 kcal/mol |
| SAGGSAGGSMTTKTFKLPDGRTVTVTTEKLPNGTTKTTVTITVPGTGKTTTVPASEVPADFSGSAGGSAGGS [r12_797_JUSTAS] | 2.08 ± 0.025 kcal/mol | 1.83 ± 0.068 kcal/mol | 1.24 ± 0.038 kcal/mol |
| SAGGSAGGSMTTSTEVVELSGGSSLTVEREYTVEEVKVDDKWETVTHEVVTTPDSTTVREIKPSAGGSAGGS [r12_128_JUSTAS] | 0.621 ± 0.068 kcal/mol | 0.526 ± 0.19 kcal/mol | 0.233 ± 0.063 kcal/mol |
| SAGGSAGGSMTVTITFAPDESLGPEKLEELLKKAGPDTTIVLSKYDPATGTTSTATIKVEPGSSAGGSAGGS [r12_913_JUSTAS] | 1.25 ± 0.013 kcal/mol | 1.07 ± 0.07 kcal/mol | 0.697 ± 0.046 kcal/mol |
| SAGGSAGGSMTWTETVITLKGNGSETTTYKAKVTEDPSSDTVLVTLPDGTPLTIPKSQVTINSSAGGSAGGS [r12_256_JUSTAS] | 0.668 ± 0.14 kcal/mol | 0.399 ± 0.096 kcal/mol | -0.131 ± 0.18 kcal/mol |
